Measurements taken from paper doi:10.1101/2024.12.18.629111 (bioRxiv, 2024).
Residue numbers refer to the chain shown, from its start.

T1: CBP-Upf1-CH-HD I693R (S. cerevisiae, UniProt P30771 54-851, I693R)
T1 sequence (looked up): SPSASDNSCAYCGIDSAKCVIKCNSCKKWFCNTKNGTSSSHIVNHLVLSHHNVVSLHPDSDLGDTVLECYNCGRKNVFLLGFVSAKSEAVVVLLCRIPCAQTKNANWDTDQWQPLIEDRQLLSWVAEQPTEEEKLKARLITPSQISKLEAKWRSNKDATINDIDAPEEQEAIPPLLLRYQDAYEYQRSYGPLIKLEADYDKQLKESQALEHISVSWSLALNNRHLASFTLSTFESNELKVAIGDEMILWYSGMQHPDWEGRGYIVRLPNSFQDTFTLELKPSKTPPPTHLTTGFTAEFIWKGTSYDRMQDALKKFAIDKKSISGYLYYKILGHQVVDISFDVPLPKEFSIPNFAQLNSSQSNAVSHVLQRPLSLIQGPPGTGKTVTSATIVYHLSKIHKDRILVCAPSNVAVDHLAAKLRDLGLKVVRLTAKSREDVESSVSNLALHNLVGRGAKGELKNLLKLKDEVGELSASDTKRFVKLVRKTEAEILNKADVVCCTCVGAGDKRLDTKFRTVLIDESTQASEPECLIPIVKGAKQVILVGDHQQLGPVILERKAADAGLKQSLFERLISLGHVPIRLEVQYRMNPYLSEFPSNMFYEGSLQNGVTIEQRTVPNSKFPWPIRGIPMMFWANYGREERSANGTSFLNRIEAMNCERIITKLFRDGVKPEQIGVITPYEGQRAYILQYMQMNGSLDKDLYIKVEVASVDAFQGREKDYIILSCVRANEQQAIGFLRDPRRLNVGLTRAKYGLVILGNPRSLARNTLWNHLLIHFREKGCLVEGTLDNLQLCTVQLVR

T2: CBP-Upf1-FL (S. cerevisiae, UniProt P30771 1-971)
T2 sequence (looked up): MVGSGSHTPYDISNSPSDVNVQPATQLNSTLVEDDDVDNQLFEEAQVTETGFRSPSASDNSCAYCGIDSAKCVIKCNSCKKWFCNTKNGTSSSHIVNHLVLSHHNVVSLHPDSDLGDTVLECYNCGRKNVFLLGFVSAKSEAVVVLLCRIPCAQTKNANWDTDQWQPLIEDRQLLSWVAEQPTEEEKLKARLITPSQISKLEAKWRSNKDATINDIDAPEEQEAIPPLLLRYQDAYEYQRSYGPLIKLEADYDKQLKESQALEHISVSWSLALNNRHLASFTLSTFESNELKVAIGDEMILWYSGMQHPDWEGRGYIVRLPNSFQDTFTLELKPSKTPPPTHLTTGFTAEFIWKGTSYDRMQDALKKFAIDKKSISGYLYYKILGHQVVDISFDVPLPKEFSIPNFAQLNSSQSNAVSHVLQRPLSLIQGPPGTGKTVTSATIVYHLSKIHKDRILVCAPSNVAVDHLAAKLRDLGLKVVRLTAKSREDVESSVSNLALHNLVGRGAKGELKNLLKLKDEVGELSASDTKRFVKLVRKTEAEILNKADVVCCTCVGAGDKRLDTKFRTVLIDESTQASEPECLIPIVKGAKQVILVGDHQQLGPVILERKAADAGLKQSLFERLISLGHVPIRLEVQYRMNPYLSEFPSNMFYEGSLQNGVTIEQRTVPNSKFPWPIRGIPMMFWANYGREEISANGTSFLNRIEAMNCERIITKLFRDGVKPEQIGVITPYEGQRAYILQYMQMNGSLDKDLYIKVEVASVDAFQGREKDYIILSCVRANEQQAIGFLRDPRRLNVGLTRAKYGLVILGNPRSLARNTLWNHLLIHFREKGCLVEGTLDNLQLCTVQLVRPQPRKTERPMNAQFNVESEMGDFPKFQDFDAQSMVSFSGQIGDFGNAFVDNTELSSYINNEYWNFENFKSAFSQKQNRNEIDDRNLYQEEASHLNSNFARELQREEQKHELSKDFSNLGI

T3: CBP-Upf1-CH-HD (S. cerevisiae, UniProt P30771 54-851)
T3 sequence (looked up): T1 sequence (looked up) with R640I

T4: GST-Ebs1 (aa 1-591) (S. cerevisiae, UniProt Q03466 1-591)
T4 sequence (looked up): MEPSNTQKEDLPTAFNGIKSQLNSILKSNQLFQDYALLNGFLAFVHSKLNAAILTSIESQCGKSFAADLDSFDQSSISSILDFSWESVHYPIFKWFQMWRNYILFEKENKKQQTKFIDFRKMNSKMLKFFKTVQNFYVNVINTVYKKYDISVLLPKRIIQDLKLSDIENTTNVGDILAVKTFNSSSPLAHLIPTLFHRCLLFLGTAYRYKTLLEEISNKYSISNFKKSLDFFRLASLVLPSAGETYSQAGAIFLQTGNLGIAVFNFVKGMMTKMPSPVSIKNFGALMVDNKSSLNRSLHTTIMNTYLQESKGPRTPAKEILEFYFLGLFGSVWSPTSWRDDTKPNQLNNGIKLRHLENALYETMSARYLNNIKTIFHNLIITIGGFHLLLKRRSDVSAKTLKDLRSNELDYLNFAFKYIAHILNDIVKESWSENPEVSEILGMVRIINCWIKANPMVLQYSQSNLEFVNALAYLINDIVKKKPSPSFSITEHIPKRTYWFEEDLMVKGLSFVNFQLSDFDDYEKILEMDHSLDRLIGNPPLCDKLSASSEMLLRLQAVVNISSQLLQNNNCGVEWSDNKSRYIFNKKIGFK

T5: FITC-labeled Dcp2-UBD2 peptide (aa 694-718) (S. cerevisiae, UniProt P53550 694-718, FITC on the N-terminus)
T5 peptide (looked up): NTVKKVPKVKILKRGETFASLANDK

T6: FITC-labeled Dcp2-UBD1 peptide (aa 456-479) (S. cerevisiae, UniProt P53550 456-479, FITC on the N-terminus)
T6 peptide (looked up): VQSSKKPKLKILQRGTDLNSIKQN

B1: Upf2(933-1089)-His (domain or fragment, S. cerevisiae, UniProt P38798 933-1089, looked up)
chain: SDSDLEYGGDLDADRDIEMKRMYEEYERKLKDEEERKAEEELERQFQKMMQESIDARKSEKVVASKIPVISKPVSVQKPLLLKKSEEPSSSKETYEELSKPKKIAFTFLTKSGKKTQSRILQLPTDVKFVSDVLEEEEKLKTERNKIKKIVLKRSFD
B2: His-tagged Nmd4 (natural protein, S. cerevisiae, UniProt Q12129 1-218, looked up)
chain: MTQYNFIIDASAFEKGLGNIKRWCSDCTEAVTLNFYIPTFTLNELDFLQQRRKSFAARESLKFIDRLDDSKFANLKVFIEFPEVLDIILWSDVMEHNDSSGKINIAKLPKRLKNLLKSCIYKCYLEGNEGLHWFLISEDPQIREMAMQCNIPSCSIVDVDSILSKDMNDKSFRESEKFNNMMLKNGTKEESENGREIIRTNFNKTVYASRGTGELWSP
B3: CBP-Upf1-Ct (domain or fragment, S. cerevisiae, UniProt P30771 852-971, looked up)
chain: PQPRKTERPMNAQFNVESEMGDFPKFQDFDAQSMVSFSGQIGDFGNAFVDNTELSSYINNEYWNFENFKSAFSQKQNRNEIDDRNLYQEEASHLNSNFARELQREEQKHELSKDFSNLGI
B4: CBP-Upf1-CH-His (domain or fragment)
chain: SPSASDNSCAYCGIDSAKCVIKCNSCKKWFCNTKNGTSSSHIVNHLVLSHHNVVSLHPDSDLGDTVLECYNCGRKNVFLLGFVSAKSEAVVVLLCRIPCAQTKNANWDTDQWQPLIEDRQLLSWVAEQPTEEEKLKARLITPSQISKLEAKWRSNKDATINDIDAPE

Columns and labels:
CBP-Upf1-CH-HD I693R = biological target: T1, CBP-Upf1-CH-HD I693R; test: pull-down
CBP-Upf1-FL = biological target: T2, CBP-Upf1-FL; test: pull-down
CBP-Upf1-CH-HD = biological target: T3, CBP-Upf1-CH-HD; test: native gel or EMSA
GST-Ebs1 (aa 1-591) = biological target: T4, GST-Ebs1 (aa 1-591); test: pull-down
[1] = biological target: the molecule itself; test: SDS-PAGE band of the dimer
Upf2(933-1089)-His = biological target: B1; test: fluorescence polarisation
[2] = biological target: T5, FITC-labeled Dcp2-UBD2 peptide (aa …); test: fluorescence polarisation
[3] = biological target: T6, FITC-labeled Dcp2-UBD1 peptide (aa …); test: fluorescence polarisation

Binder: B1
- binding result (CBP-Upf1-CH-HD I693R): binds

Binder: B2
- binding result (CBP-Upf1-FL): binds
- binding result (CBP-Upf1-CH-HD): binds

Binder: B3
- binding result (GST-Ebs1 (aa 1-591)): binds

Binder: B4
- stoichiometry N [1]: 2
- Kd (Upf2(933-1089)-His): 0.43 µM
- Kd [2]: 25.1 µM
- Kd [3]: 60.1 µM
